In article PMC9817231:
Read-outs that look alike come from different tables or passages of the source.

Key:
[1] = biological target: T1, FL-Nsp1 (non-structural protein 1) (SARS-CoV-2, UniProt P0DTD1 1-180); experiment: NMR
[2] = biological target: T1, FL-Nsp1 (non-structural protein 1); experiment: NMR; remark: listed apart in the source

Binder | binding result [1] | binding result [2]
SL1-4 (structured_RNA) RNA: GGUUUAUACCUUCCCAGGUAACAAACCAACCAACUUUCGAUCUCUUGUAGAUCUGUUCUCUAAACGAACUUUAAAAUCUGUGUGGCUGUCACUCGGCUGCAUGCUUAGUGCACUCACGC | no binding | –
GGGUUUAUACCUUCCCAGGUAACAAACCC (structured_RNA) [SL1] | – | no binding
